Numbered stars: 1 amine (or outer) side, 2 acyl side, 3 side chain; on linkers, the order of the positions; unused ones are H or OH. Bridge positions count the residues as written; N and C are the ends. Square brackets hold non-standard residues; d marks the D form. Primed or numbered codes have the meaning given here. * marks the point of attachment. RbOHPhe4CONH2 = (2S,3R)-2-amino-3-(4-carbamoylphenyl)-3-hydroxypropanoic acid, NC(=O)c1ccc([C@@H](O[*:3])[C@H](N[*:1])C(=O)[*:2])cc1; bhcLeu = (1R,3S)-3-aminocyclopentane-1-carboxylic acid, O=C([C@@H]1CC[C@H](N[*:1])C1)[*:2]; Trp(βS-Me,7-OMe) = COc1cccc2c([C@H](C)[C@H](N)C(=O)O)c[nH]c12; dPro(trans-4-NMe2) = CN(C)[C@@H]1CN[C@@H](C(=O)O)C1; Trp(7-CN) = N#Cc1cccc2c(C[C@H](N)C(=O)O)c[nH]c12; Trp(7-Cl) = N[C@@H](Cc1c[nH]c2c(Cl)cccc12)C(=O)O; Biotin = O=C1N[C@H]2[C@H](CS[C@H]2CCCCC(=O)*)N1; Phe(4-CONH2) = NC(=O)c1ccc(C[C@H](N)C(=O)O)cc1; Phe(4-COOH) = N[C@@H](Cc1ccc(C(=O)O)cc1)C(=O)O; Trp(7-aza) = N[C@@H](Cc1c[nH]c2ncccc12)C(=O)O; Pip(4-aza) = O=C(O)[C@@H]1CNCCN1; 4Pal = N[C@@H](Cc1ccncc1)C(=O)O; NMeE = CN[C@@H](CCC(=O)O)C(=O)O; dHyp = O=C(O)[C@H]1C[C@H](O)CN1; d(αMeP) = C[C@]1(C(=O)O)CCCN1; 40Me3Pal = not defined here; Pipt5OH = not defined here; αMeS = C[C@](N)(CO)C(=O)O; Nle = CCCC[C@H](N)C(=O)O; Pip2c = not defined here; Ahp′ = not defined here; AEA = NCCOCC(=O)O; Sar = CNCC(=O)O
Columns and labels:
[1] = target: T1, C-terminally 6His-tagged human soluble TNFR1 (sTNFR1, residues 1-211), purified from a Sf21 baculovirus … (human); experiment: TR-FRET binding assay, probe peptide with sTNFR1-6His (0.25 nM)
T1 construct: ID NO; The text says 'residues 1-211'; also called sTNFR1-6His; ID NO; P1
T1 chain: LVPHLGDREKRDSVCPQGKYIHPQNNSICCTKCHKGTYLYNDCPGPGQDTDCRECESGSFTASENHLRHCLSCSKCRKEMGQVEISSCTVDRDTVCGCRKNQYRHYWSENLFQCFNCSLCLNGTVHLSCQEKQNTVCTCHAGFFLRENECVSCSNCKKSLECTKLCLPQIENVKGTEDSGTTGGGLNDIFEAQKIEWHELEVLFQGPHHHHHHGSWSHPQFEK

[2] = target: T2, TNFR1 on THP-1 Lucia NF-kB reporter cells (UniProt P19438 30-455, limits assumed); experiment: cell-based or functional assay
T2 sequence (looked up): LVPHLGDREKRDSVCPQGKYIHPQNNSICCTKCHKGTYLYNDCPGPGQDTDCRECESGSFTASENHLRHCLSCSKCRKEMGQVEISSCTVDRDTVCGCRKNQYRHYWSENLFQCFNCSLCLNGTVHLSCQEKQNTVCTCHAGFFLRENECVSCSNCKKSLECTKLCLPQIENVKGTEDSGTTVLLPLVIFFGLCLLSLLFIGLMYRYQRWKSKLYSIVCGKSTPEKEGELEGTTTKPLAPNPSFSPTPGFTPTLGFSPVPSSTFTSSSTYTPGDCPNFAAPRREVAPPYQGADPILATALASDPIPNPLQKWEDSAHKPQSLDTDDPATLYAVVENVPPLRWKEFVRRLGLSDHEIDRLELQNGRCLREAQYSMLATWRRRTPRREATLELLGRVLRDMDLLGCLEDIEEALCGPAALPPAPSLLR

[3] = target: T3, TNFR1 on THP-1 Lucia NF-κB reporter cells (UniProt P19438 30-455, limits assumed); experiment: cell-based or functional assay
T3 sequence (looked up): T2 sequence (looked up)

B1: biotinylated peptide SEQ ID NO. 1 (TR-FRET probe): cyclo(ClAc-F-Y-S-W-Sar-N-Y-W-S-Y-Y-Sar-W-C)-G-Aea-K(N-Biotin)-NH2 (peptide)
peptide: {CH2CO}-FYSW[Sar]NYWSYY[Sar]WCG[AEA]K(Biotin)-NH2
modifications: thioether N-14
SMILES: CN1CC(=O)N[C@@H](CC(N)=O)C(=O)N[C@@H](Cc2ccc(O)cc2)C(=O)N[C@@H](Cc2c[nH]c3ccccc23)C(=O)N[C@@H](CO)C(=O)N[C@@H](Cc2ccc(O)cc2)C(=O)N[C@@H](Cc2ccc(O)cc2)C(=O)N(C)CC(=O)N[C@@H](Cc2c[nH]c3ccccc23)C(=O)N[C@H](C(=O)NCC(=O)NCCOCC(=O)N[C@@H](CCCCNC(=O)CCCC[C@@H]2SC[C@@H]3NC(=O)N[C@@H]32)C(N)=O)CSCC(=O)N[C@@H](Cc2ccccc2)C(=O)N[C@@H](Cc2ccc(O)cc2)C(=O)N[C@@H](CO)C(=O)N[C@@H](Cc2c[nH]c3ccccc23)C1=O
notes: Synthetic thioether macrocycle made by Procedure A, with a Gly-Aea spacer and Lys(biotin) on the carboxy group of the C-terminal cysteine; also called biotin-tagged B0372 peptide
Kd [1]: ~100 nM

B2: SEQ ID NO. 98 (peptide)
peptide: cyclo([bhcLeu][Ahp′][SbMe4Pal]HW[dHyp]N[Phe(4-COOH)][Trp(7-CN)][αMeS][Phe(4-CONH2)][Phe(4-CONH2)][Sar][Trp(βS-Me,7-OMe)])
modifications: reading uncertain; also: printed as cyclo(bhcLeu-Ahp-SbMe4Pal-H-W-dProt4OH-N-Phe4COOH-Trp7CN-aMeS-Phe4CONH2-Phe4CONH2-Sar-SbMeW7OMe)
THP-1 IC50 [2]: 1.5 nM

B3: SEQ ID NO. 78 (peptide)
peptide: cyclo([bhcLeu][Nle][4Pal][Pipt5OH]W[dHyp][RbOHAsn][4Pal][Trp(7-CN)][αMeS][Phe(4-CONH2)][Phe(4-COOH)][Sar][Trp(βS-Me,7-OMe)])
modifications: reading uncertain; also: printed as cyclo(bhcLeu-Nle-4Pal-Pipt5OH-W-dProt4OH-RbOHAsn-4Pal-Trp7CN-aMeS-Phe4CONH2-Phe4COOH-Sar-SbMeW7OMe)
THP-1 IC50 [2]: 0.7 nM

B4: SEQ ID NO. 287 (Example No. 287) macrocyclic peptide (peptide)
peptide: cyclo([bhcLeu][Nle][4Pal][Pip(4-aza)][Trp(7-aza)][dPro(trans-4-NMe2)]N[Phe(4-COOH)][Trp(7-CN)][αMeS][Phe(4-COOH)][RbOHPhe4CONH2][Sar][Trp(βS-Me,7-OMe)])
SMILES: CCCC[C@@H]1NC(=O)[C@@H]2CC[C@@H](C2)NC(=O)[C@H]([C@@H](C)c2c[nH]c3c(OC)cccc23)NC(=O)CN(C)C(=O)[C@H]([C@H](O)c2ccc(C(N)=O)cc2)NC(=O)[C@H](Cc2ccc(C(=O)O)cc2)NC(=O)[C@](C)(CO)NC(=O)[C@H](Cc2c[nH]c3c(C#N)cccc23)NC(=O)[C@H](Cc2ccc(C(=O)O)cc2)NC(=O)[C@H](CC(N)=O)NC(=O)[C@H]2C[C@H](N(C)C)CN2C(=O)[C@H](Cc2c[nH]c3ncccc23)NC(=O)[C@@H]2CNCCN2C(=O)[C@H](Cc2ccncc2)NC1=O
THP-1 IC50 [3]: 1.7 nM

B5: SEQ ID NO. 76 (peptide)
peptide: {CH2CO}-[Nle][4Pal][Pip2c]W[d(αMeP)]N[4Pal][Trp(7-Cl)][αMeS][Phe(4-COOH)]Y[Sar][Trp(βS-Me,7-OMe)]C-NH2
modifications: thioether N-14 (inferred); reading uncertain; also: printed as cyclo(ClAc-Nle-4Pal-Pip2c-W-daMeP-N-4Pal-Trp7Cl-aMeS-Phe4COOH-Y-Sar-SbMeW7OMe-C)-NH2
THP-1 IC50 [2]: 4.7 nM

B6: SEQ ID NO. 100 (peptide)
peptide: cyclo([bhcLeu][Nle][4Pal][Pip2c]W[NMeE]N[40Me3Pal][Trp(7-Cl)][αMeS][Phe(4-COOH)]Y[Sar][Trp(βS-Me,7-OMe)])
modifications: reading uncertain; also: printed as cyclo(bhcLeu-Nle-4Pal-Pip2c-W-NMeE-N-40Me3Pal-Trp7Cl-aMeS-Phe4COOH-Y-Sar-SbMeW7OMe)
THP-1 IC50 [2]: 1.3 nM

B7: SEQ ID NO. 88 (peptide)
peptide: cyclo([bhcLeu][Nle][4Pal][Pipt5OH]W[dHyp]N[AlaPyrim4COOH][Trp(7-Cl)][αMeS][Phe(4-CONH2)][Phe(4-COOH)][Sar][Trp(βS-Me,7-OMe)])
modifications: reading uncertain; also: printed as cyclo(bhcLeu-Nle-4Pal-Pipt5OH-W-dProt4OH-N-AlaPyrim4COOH-Trp7Cl-aMeS-Phe4CONH2-Phe4COOH-Sar-SbMeW7OMe)
THP-1 IC50 [2]: 1.9 nM
